For series [1], the target named is T1, RXR (Gallus gallus, UniProt P28701 P28701:1-467).
T1 sequence: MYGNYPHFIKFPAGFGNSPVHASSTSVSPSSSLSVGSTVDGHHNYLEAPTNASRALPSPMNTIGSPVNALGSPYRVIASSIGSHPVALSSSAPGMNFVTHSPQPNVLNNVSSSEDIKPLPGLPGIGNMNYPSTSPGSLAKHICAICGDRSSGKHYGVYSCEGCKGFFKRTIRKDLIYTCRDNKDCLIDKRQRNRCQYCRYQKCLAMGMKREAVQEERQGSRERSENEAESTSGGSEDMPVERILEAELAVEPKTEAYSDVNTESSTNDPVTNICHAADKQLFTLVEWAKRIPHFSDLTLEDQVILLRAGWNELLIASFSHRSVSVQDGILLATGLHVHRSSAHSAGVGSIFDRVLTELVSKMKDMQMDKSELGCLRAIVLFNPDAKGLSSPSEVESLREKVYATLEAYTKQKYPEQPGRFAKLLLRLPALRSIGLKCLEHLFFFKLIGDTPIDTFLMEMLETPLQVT
Kind of series: EMSA; RXR alone. Particulars: tags: TNT T7 Quick Coupled; pSG5; label: 32P. The method, then:
(§1) Radiolabelled ADRES wild type (lanes 1-5) and mutant (lanes 6-7) sequences were incubated with in vitro transcribed/translated CXR (lanes 3-7), chicken RXR (lanes 2 and 4-7) and anti-RXR antibody (lane 5 and 7), as indicated. Arrows depict the unbound probe, the shifted CXR-RXR-probe complex, and the supershifted CXR-RXR-probe-anti-RXR antibody complex;
(§2) Chicken CXR and RXR proteins were expressed using the TNT T7 Quick Coupled Translation System (Promega) according to the manufacturers protocol. Probes were labeled by Klenow reaction in the presence of radiolabeled [α-³²P]ATP and purified over a Biospin 6 chromatography column. A volume of labeled oligonucleotide corresponding to 100,000 cpm was used for each reaction in 10 mM Tris-HCL (8.0)/40 mM KCl/0.05% Nonidet P40′/6% glycerol (vol./vol.)/1 mM DTT containing 0.2 μg of poly(dI-dC) and 2.5 μl in-vitro synthesized proteins as described previously (2, 7). To test for supershifts, 0.5 μl monoclonal anti-mouse-RXR rabbit antibody (kindly provided by P. Chambon, Université Louis Pasteur, Illkirch, France) were added to the reaction mix. This antibody has been previously tested for interactions with chicken RXR in Western blots (data not shown). The reaction mix was incubated for 20 min at room temperature and electrophoresed on a 6% polyacrylamide gel in 0.5× Tris/borate/EDTA buffer followed by autoradiography.

Series [2] deals with T2, CXR/RXR heterodimer (Gallus gallus, UniProt A0A8V1AGS4;P28701 A0A8V1AGS4:1-375,P28701:1-467). Kind of series: EMSA; supershifted by anti-RXR. As to conditions: tags: TNT T7 Quick Coupled; pSG5; label: 32P. On the procedure: as §1, §2
T2 sequence (chain, as listed by the source): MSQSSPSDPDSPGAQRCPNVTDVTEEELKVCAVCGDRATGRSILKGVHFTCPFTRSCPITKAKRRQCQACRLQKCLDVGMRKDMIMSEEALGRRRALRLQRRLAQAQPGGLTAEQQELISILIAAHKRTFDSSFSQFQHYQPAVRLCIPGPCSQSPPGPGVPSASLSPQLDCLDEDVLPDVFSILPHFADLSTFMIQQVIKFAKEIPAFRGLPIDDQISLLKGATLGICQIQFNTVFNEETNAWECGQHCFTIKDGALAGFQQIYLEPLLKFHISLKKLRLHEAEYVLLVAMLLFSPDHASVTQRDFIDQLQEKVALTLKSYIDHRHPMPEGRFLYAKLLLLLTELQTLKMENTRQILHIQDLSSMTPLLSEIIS
The target in series [3] is T2, CXR/RXR heterodimer. Kind of series: EMSA; binding virtually eliminated. As to conditions: tags: TNT T7 Quick Coupled; pSG5; label: 32P. On the procedure: (§3) Radiolabelled ADRES wild type (lanes 1-5) and mutant. (lanes 6-7) sequences were incubated With in vitro transcribed/translated CXR (lanes 3-7), chicken RXR (lanes 2 and 4-7) and anti-RXR antibody (Lane 5 and 7), as indicated. Arrows depict the unbound probe, the shifted CXR-RXR-probe complex, and the supershifted CXR-RXR-probe-anti-RXR antibody complex;
as §2

The next series has as its target CAR/RXRalpha heterodimer (Homo sapiens, UniProt Q14994;P19793 Q14994:1-352,P19793:1-462). Put plainly: EMSA. Particulars: tags: TNT reticulocyte lysate; label: radiolabel. From the text:
(§4) FIG. 19 depicts the results of an electrophoretic mobility shift assay, assaying the ability of human PXR and human CAR to bind to the hA174 and hA240 elements. Binding of these nuclear receptors happens in a heterodimeric state with the human 9-cis retinoic acid receptor RXRα. From expression plasmids encoding human RXRα, […] or CAR, receptor protein was made in vitro using the TNT reticulocyte lysate coupled transcription/translation system (Promega Corp.).
(§5) Lanes 1-4: Wildtype hA174 was incubated with no receptor (mock transcription/translation) or with RXRα, PXR or CAR alone. No complex is observed using single receptors. Lanes 5 and 7: Wild-type hA174 was incubated with RXRα and PXR or RXRα and CAR, upon which complex formation between radiolabeled probe and protein is observed. Lanes 6 and 8: Same conditions as in lanes 5 and 7, but instead of wild-type hA174, a radiolabeled probe was used where the half-site 2 was mutated. No complex is formed anymore.

For the next series, the target named is PXR/RXRalpha heterodimer (Homo sapiens, UniProt O75469;P19793 O75469:1-434,P19793:1-462). Kind of series: EMSA. As to conditions: tags: TNT reticulocyte lysate; label: radiolabel.
Text: as §4, §5

A further series addresses T3, PXR (Homo sapiens, UniProt O75469 O75469:1-434).
T3 sequence: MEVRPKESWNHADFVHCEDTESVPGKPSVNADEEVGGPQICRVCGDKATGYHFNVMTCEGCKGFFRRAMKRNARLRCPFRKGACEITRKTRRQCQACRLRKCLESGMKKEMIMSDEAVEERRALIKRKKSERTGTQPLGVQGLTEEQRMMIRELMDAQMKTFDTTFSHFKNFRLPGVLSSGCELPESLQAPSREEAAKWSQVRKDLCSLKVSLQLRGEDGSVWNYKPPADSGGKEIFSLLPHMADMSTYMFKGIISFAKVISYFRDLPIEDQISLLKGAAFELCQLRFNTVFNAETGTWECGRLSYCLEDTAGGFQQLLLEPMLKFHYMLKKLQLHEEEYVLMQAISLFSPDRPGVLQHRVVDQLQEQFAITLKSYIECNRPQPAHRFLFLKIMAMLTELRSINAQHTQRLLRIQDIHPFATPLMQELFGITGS
Put plainly: EMSA; PXR alone. Particulars: tags: TNT reticulocyte lysate; label: radiolabel.
Text: as §4, §5

Another series deals with T4, CAR (Homo sapiens, UniProt Q14994 Q14994:1-352).
T4 sequence: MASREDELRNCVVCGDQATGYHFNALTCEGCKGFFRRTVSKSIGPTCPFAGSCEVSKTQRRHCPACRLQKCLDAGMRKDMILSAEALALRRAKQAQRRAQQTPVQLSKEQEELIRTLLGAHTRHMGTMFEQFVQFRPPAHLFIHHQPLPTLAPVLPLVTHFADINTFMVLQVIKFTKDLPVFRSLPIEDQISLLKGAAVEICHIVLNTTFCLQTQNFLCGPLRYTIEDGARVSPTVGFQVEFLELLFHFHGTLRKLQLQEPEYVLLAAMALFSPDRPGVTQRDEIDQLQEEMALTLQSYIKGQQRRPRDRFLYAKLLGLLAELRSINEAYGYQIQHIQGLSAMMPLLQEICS
Kind of series: EMSA; CAR alone. Particulars: tags: TNT reticulocyte lysate; label: radiolabel.
Text: as §4, §5

The target in the next series is RXRalpha (Homo sapiens, UniProt P19793 P19793:1-462). Kind of series: EMSA; RXRalpha alone. Particulars: tags: TNT reticulocyte lysate; label: radiolabel.
Text: as §4, §5

Series [4] concerns the target T5, human 9-cis retinoic acid receptor RXRα (human, UniProt P19793 1-462).
T5 construct: also called human RXRα
T5 sequence (looked up): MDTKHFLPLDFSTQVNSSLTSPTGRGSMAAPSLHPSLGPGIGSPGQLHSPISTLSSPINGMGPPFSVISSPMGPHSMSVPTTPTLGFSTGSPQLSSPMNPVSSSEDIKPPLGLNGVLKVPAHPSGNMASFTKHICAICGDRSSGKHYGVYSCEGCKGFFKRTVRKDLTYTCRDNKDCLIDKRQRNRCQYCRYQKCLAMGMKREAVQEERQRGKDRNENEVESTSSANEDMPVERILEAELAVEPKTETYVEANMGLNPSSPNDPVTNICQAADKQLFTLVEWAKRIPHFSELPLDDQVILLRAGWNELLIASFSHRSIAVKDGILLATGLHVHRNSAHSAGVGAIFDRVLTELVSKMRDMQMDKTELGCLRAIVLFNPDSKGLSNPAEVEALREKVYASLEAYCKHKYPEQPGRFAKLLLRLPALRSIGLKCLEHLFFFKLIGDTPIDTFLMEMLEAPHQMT
Kind of series: electrophoretic mobility shift, hA240 probe; no complex with single receptors (FIG. 19B).
Text: as §4
FIG. 19B: Instead of the hA174 fragment, wild-type or DR4-mutant hA240 fragment was radiolabeled and used as probe. Lanes 1-4: Wildtype hA240 was incubated with no receptor (mock transcription/translation) or with RXRα, PXR or CAR alone. No complex is observed using single receptors. Lanes 5 and 7: Wild-type hA240 was incubated with RXRα and PXR or RXRα and CAR, upon which complex formation between radiolabeled probe and protein is observed. Lanes 6 and 8: Same conditions as in lanes 5 and 7, but instead of wild-type probe, radiolabeled hA240DR4(2) mutant was used. No complex is formed.

The target of series [5] is T1, RXR. Kind of series: EMSA; RXR alone. Particulars: tags: TNT T7 Quick Coupled; pSG5; label: 32P. The method, then: as §3, §2
This is another data set of the same source.

Series [6] deals with T2, CXR/RXR heterodimer. Kind of series: EMSA; supershifted by anti-RXR; 40 mM KCl, pH 8.0, poly(dI-dC), room temperature. As to conditions: tags: TNT T7 Quick Coupled; pSG5; label: 32P. On the procedure:
as §3, §2

B1: 167 bp ADRES (dsDNA)
DNA 1: CTGCCTCCAGTCCTGAACTTTCTCTGCTGGGATGAGCAGAGTTCACGCTCGGCTGAACTCGTGACTGTGTCAACAGGGGGCATGAAGATCAGCACCAGGCAAAGGTGAGCGGAGTGCACAAGAATGAGGCAGAGACCTTTGGGACAAAGAGTTCCCCACCCGTGGGG
DNA 2: CCCCACGGGTGGGGAACTCTTTGTCCCAAAGGTCTCTGCCTCATTCTTGTGCACTCCGCTCACCTTTGCCTGGTGCTGATCTTCATGCCCCCTGTTGACACAGTCACGAGTTCAGCCGAGCGTGAACTCTGCTCATCCCAGCAGAGAAAGTTCAGGACTGGAGGCAG
Turning to B1, the values for the binding result with RXR [1] and in the series with CXR/RXR heterodimer [2] were “no binding” and “binds”, respectively.

B2: 176 bp ADRES DR4-1/DR5 double mutant (dsDNA)
DNA 1: GGGCTCCATCGGCCTCTTCAGGTTATTGCTATGTTGGTATCGTGTCGAGTTCCTCCCTGTTTTCAAGGTTCTGATAACAAACTTCTAGGACAGCCTGGCTGCAGTTGGCGAATTCTCCTCTTTAAACTCCGGTGGCTTTTGCTTCATTGCCTAGTTGTTACCCAGCAGTAAAGATC
DNA 2: GATCTTTACTGCTGGGTAACAACTAGGCAATGAAGCAAAAGCCACCGGAGTTTAAAGAGGAGAATTCGCCAACTGCAGCCAGGCTGTCCTAGAAGTTTGTTATCAGAACCTTGAAAACAGGGAGGAACTCGACACGATACCAACATAGCAATAACCTGAAGAGGCCGATGGAGCCC
On to B2, for which the binding result with CXR/RXR heterodimer [3] is “no binding”.

B3: hA174 (dsDNA)
DNA 1: GCGCAAAGTCAACACAAGCCTCTCCACCGTGTGTCCATGTTTATGTGTATGCGCTGTGCCCCGTCATGCCACCTGGACGCAGGGACTCCAGTGACCTCTCCTTGCACAAGCCTCTGCTGGTTTGGGAAAGATTGGCATGACATCAGCCAAGCTCTGGCCTTGCCTTTTTTCCCT
DNA 2: AGGGAAAAAAGGCAAGGCCAGAGCTTGGCTGATGTCATGCCAATCTTTCCCAAACCAGCAGAGGCTTGTGCAAGGAGAGGTCACTGGAGTCCCTGCGTCCAGGTGGCATGACGGGGCACAGCGCATACACATAAACATGGACACACGGTGGAGAGGCTTGTGTTGACTTTGCGC
As for B3, the binding result is “binds” with CAR/RXRalpha heterodimer; “binds” in the series with PXR/RXRalpha heterodimer; “no binding” with PXR; “no binding” with CAR; “no binding” with RXRalpha.

B4: human pregnane X receptor (PXR) (receptor, UniProt O75469 1-434, looked up)
chain: T3 sequence
notes: also called human PXR; hPXR
B4: the binding result in series [4] is reported as “binds”.

B5: 176 bp ADRES (dsDNA)
DNA 1: GGGCTCCATCGGCCTCTTCAGGTTATTGCTATGTTCAACTCGTGTGACCTTCCTCCCTGTTTTCAAGGTTCTGATAACAAACTTCTAGGACAGCCTGGTGACCTTTGGCTCAGCTTCCTCTTTAAACTCCGGTGGCTTTTGCTTCATTGCCTAGTTGTTACCCAGCAGTAAAGATC
DNA 2: GATCTTTACTGCTGGGTAACAACTAGGCAATGAAGCAAAAGCCACCGGAGTTTAAAGAGGAAGCTGAGCCAAAGGTCACCAGGCTGTCCTAGAAGTTTGTTATCAGAACCTTGAAAACAGGGAGGAAGGTCACACGAGTTGAACATAGCAATAACCTGAAGAGGCCGATGGAGCCC
As for B5, the binding result with RXR [5] is “no binding”; in the series with CXR/RXR heterodimer [6] it was “binds”.

Values taken from patent US20050118601A1, “Enhancer sequence of the 5-aminolevulinic acid synthase gene” (priority 2002, published 2005).
